Square brackets hold non-standard residues; d marks the D form. dNle = CCCC[C@@H](N)C(=O)O; Nle = CCCC[C@H](N)C(=O)O
B1: AP534m (peptide)
peptide: Ac-RGE[dNle]N[dY]F[dW]MNEYYGW[dT]M[dN]M[dC]RGK-NH2
SMILES: CCCC[C@@H](NC(=O)[C@H](CCC(=O)O)NC(=O)CNC(=O)[C@H](CCCNC(=N)N)NC(C)=O)C(=O)N[C@@H](CC(N)=O)C(=O)N[C@H](Cc1ccc(O)cc1)C(=O)N[C@@H](Cc1ccccc1)C(=O)N[C@H](Cc1c[nH]c2ccccc12)C(=O)N[C@@H](CCSC)C(=O)N[C@@H](CC(N)=O)C(=O)N[C@@H](CCC(=O)O)C(=O)N[C@@H](Cc1ccc(O)cc1)C(=O)N[C@@H](Cc1ccc(O)cc1)C(=O)NCC(=O)N[C@@H](Cc1c[nH]c2ccccc12)C(=O)N[C@@H](C(=O)N[C@@H](CCSC)C(=O)N[C@H](CC(N)=O)C(=O)N[C@@H](CCSC)C(=O)N[C@H](CS)C(=O)N[C@@H](CCCNC(=N)N)C(=O)NCC(=O)N[C@@H](CCCCN)C(N)=O)[C@H](C)O
B2: AP530m (peptide)
peptide: Ac-RGE[dC]N[dY]F[dW]MNEYYGW[dT]M[dN]M[dR]MGK-NH2
SMILES: CSCC[C@H](NC(=O)[C@@H](CCCNC(=N)N)NC(=O)[C@H](CCSC)NC(=O)[C@@H](CC(N)=O)NC(=O)[C@H](CCSC)NC(=O)[C@H](NC(=O)[C@H](Cc1c[nH]c2ccccc12)NC(=O)CNC(=O)[C@H](Cc1ccc(O)cc1)NC(=O)[C@H](Cc1ccc(O)cc1)NC(=O)[C@H](CCC(=O)O)NC(=O)[C@H](CC(N)=O)NC(=O)[C@H](CCSC)NC(=O)[C@@H](Cc1c[nH]c2ccccc12)NC(=O)[C@H](Cc1ccccc1)NC(=O)[C@@H](Cc1ccc(O)cc1)NC(=O)[C@H](CC(N)=O)NC(=O)[C@@H](CS)NC(=O)[C@H](CCC(=O)O)NC(=O)CNC(=O)[C@H](CCCNC(=N)N)NC(C)=O)[C@H](C)O)C(=O)NCC(=O)N[C@@H](CCCCN)C(N)=O
B3: AP533m (peptide)
peptide: Ac-RGE[dNle]N[dY]F[dW]MNEYYGW[dT]M[dN]M[dR]CGK-NH2
SMILES: CCCC[C@@H](NC(=O)[C@H](CCC(=O)O)NC(=O)CNC(=O)[C@H](CCCNC(=N)N)NC(C)=O)C(=O)N[C@@H](CC(N)=O)C(=O)N[C@H](Cc1ccc(O)cc1)C(=O)N[C@@H](Cc1ccccc1)C(=O)N[C@H](Cc1c[nH]c2ccccc12)C(=O)N[C@@H](CCSC)C(=O)N[C@@H](CC(N)=O)C(=O)N[C@@H](CCC(=O)O)C(=O)N[C@@H](Cc1ccc(O)cc1)C(=O)N[C@@H](Cc1ccc(O)cc1)C(=O)NCC(=O)N[C@@H](Cc1c[nH]c2ccccc12)C(=O)N[C@@H](C(=O)N[C@@H](CCSC)C(=O)N[C@H](CC(N)=O)C(=O)N[C@@H](CCSC)C(=O)N[C@H](CCCNC(=N)N)C(=O)N[C@@H](CS)C(=O)NCC(=O)N[C@@H](CCCCN)C(N)=O)[C@H](C)O
B4: AP501m (peptide)
peptide: Ac-RGN[dW]N[dE]S[dK]MNEYYGW[dM]L[dM]C[dT]MGR-NH2
SMILES: CSCC[C@H](NC(=O)[C@@H](CCCCN)NC(=O)[C@H](CO)NC(=O)[C@@H](CCC(=O)O)NC(=O)[C@H](CC(N)=O)NC(=O)[C@@H](Cc1c[nH]c2ccccc12)NC(=O)[C@H](CC(N)=O)NC(=O)CNC(=O)[C@H](CCCNC(=N)N)NC(C)=O)C(=O)N[C@@H](CC(N)=O)C(=O)N[C@@H](CCC(=O)O)C(=O)N[C@@H](Cc1ccc(O)cc1)C(=O)N[C@@H](Cc1ccc(O)cc1)C(=O)NCC(=O)N[C@@H](Cc1c[nH]c2ccccc12)C(=O)N[C@H](CCSC)C(=O)N[C@@H](CC(C)C)C(=O)N[C@H](CCSC)C(=O)N[C@@H](CS)C(=O)N[C@@H](C(=O)N[C@@H](CCSC)C(=O)NCC(=O)N[C@@H](CCCNC(=N)N)C(N)=O)[C@H](C)O
B5: AP526d (peptide)
peptide: Ac-[dR]G[dE]M[dN]L[dS]W[dM][dN][dE][dY][dS]G[dW]T[dM]N[dC]K[dM]G[dR]-NH2
modifications: also: homodimer: D-Cys19 disulfide-bonded to D-Cys19 of other copy
B6: AP500d (peptide)
peptide: Ac-RGN[dW]N[dE]S[dK]MNEYSGW[dM]L[dM]C[dT]MGR-NH2
modifications: also: disulfide-linked homodimer via Cys19
B7: AP532d (peptide)
peptide: Ac-RGE[dM]C[dY]F[dW]MNEYYGW[dT]M[dN]M[dR][Nle]GK-NH2
modifications: also: disulfide-linked homodimer via Cys5
B8: AP531d (peptide)
peptide: Ac-RGE[dC]N[dY]F[dW]MNEYYGW[dT]M[dN]M[dR][Nle]GK-NH2
modifications: also: disulfide-linked homodimer via Cys4
B9: AP534d (peptide)
peptide: Ac-RGE[dNle]N[dY]F[dW]MNEYYGW[dT]M[dN]M[dC]RGK-NH2
modifications: also: disulfide-linked homodimer via Cys20
B10: AP535d (peptide)
peptide: Ac-RGE[dY]N[dC]F[dW]MNEYYGW[dT]M[dN]M[dR]MGK-NH2
modifications: also: homodimer: D-Cys6 disulfide-bonded to D-Cys6 of other copy
B11: AP531m (peptide)
peptide: Ac-RGE[dC]N[dY]F[dW]MNEYYGW[dT]M[dN]M[dR][Nle]GK-NH2
SMILES: CCCC[C@H](NC(=O)[C@@H](CCCNC(=N)N)NC(=O)[C@H](CCSC)NC(=O)[C@@H](CC(N)=O)NC(=O)[C@H](CCSC)NC(=O)[C@H](NC(=O)[C@H](Cc1c[nH]c2ccccc12)NC(=O)CNC(=O)[C@H](Cc1ccc(O)cc1)NC(=O)[C@H](Cc1ccc(O)cc1)NC(=O)[C@H](CCC(=O)O)NC(=O)[C@H](CC(N)=O)NC(=O)[C@H](CCSC)NC(=O)[C@@H](Cc1c[nH]c2ccccc12)NC(=O)[C@H](Cc1ccccc1)NC(=O)[C@@H](Cc1ccc(O)cc1)NC(=O)[C@H](CC(N)=O)NC(=O)[C@@H](CS)NC(=O)[C@H](CCC(=O)O)NC(=O)CNC(=O)[C@H](CCCNC(=N)N)NC(C)=O)[C@H](C)O)C(=O)NCC(=O)N[C@@H](CCCCN)C(N)=O
B12: AP535m (peptide)
peptide: Ac-RGE[dY]N[dC]F[dW]MNEYYGW[dT]M[dN]M[dR]MGK-NH2
SMILES: CSCC[C@H](NC(=O)[C@@H](CCCNC(=N)N)NC(=O)[C@H](CCSC)NC(=O)[C@@H](CC(N)=O)NC(=O)[C@H](CCSC)NC(=O)[C@H](NC(=O)[C@H](Cc1c[nH]c2ccccc12)NC(=O)CNC(=O)[C@H](Cc1ccc(O)cc1)NC(=O)[C@H](Cc1ccc(O)cc1)NC(=O)[C@H](CCC(=O)O)NC(=O)[C@H](CC(N)=O)NC(=O)[C@H](CCSC)NC(=O)[C@@H](Cc1c[nH]c2ccccc12)NC(=O)[C@H](Cc1ccccc1)NC(=O)[C@@H](CS)NC(=O)[C@H](CC(N)=O)NC(=O)[C@@H](Cc1ccc(O)cc1)NC(=O)[C@H](CCC(=O)O)NC(=O)CNC(=O)[C@H](CCCNC(=N)N)NC(C)=O)[C@H](C)O)C(=O)NCC(=O)N[C@@H](CCCCN)C(N)=O
B13: AP532m (peptide)
peptide: Ac-RGE[dM]C[dY]F[dW]MNEYYGW[dT]M[dN]M[dR][Nle]GK-NH2
SMILES: CCCC[C@H](NC(=O)[C@@H](CCCNC(=N)N)NC(=O)[C@H](CCSC)NC(=O)[C@@H](CC(N)=O)NC(=O)[C@H](CCSC)NC(=O)[C@H](NC(=O)[C@H](Cc1c[nH]c2ccccc12)NC(=O)CNC(=O)[C@H](Cc1ccc(O)cc1)NC(=O)[C@H](Cc1ccc(O)cc1)NC(=O)[C@H](CCC(=O)O)NC(=O)[C@H](CC(N)=O)NC(=O)[C@H](CCSC)NC(=O)[C@@H](Cc1c[nH]c2ccccc12)NC(=O)[C@H](Cc1ccccc1)NC(=O)[C@@H](Cc1ccc(O)cc1)NC(=O)[C@H](CS)NC(=O)[C@@H](CCSC)NC(=O)[C@H](CCC(=O)O)NC(=O)CNC(=O)[C@H](CCCNC(=N)N)NC(C)=O)[C@H](C)O)C(=O)NCC(=O)N[C@@H](CCCCN)C(N)=O
B14: AP533d (peptide)
peptide: Ac-RGE[dNle]N[dY]F[dW]MNEYYGW[dT]M[dN]M[dR]CGK-NH2
modifications: also: disulfide-linked homodimer via Cys21

Target: Aβ42 (UniProt P05067 672-713)
Sequence (P05067 672-713 limits assumed): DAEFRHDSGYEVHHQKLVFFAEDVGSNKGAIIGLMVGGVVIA
Assay: cell-based or functional assay

Binder	% inhibition of fibril formation (ThT), AP:Aβ42 1:1 [%]	% inhibition of fibril formation (ThT), AP:Aβ42 1:10 [%]	% inhibition of fibril formation (ThT), AP:Aβ42 1:100 [%]
B1	40.2	11.2	0
B2	78.2	31.6	0
B3	40.3	0	0
B4	29.2	0	0
B5	100	88.6	62.4
B6	100	100	72.2
B7	94.2	75.4	64.3
B8	92.6	78.6	38.5
B9	100	92.2	51.3
B10	100	98.2	53.7
B11	37.2	9.1	0
B12	62.3	31.3	0
B13	62.1	0	0
B14	85.2	68.2	51.4

— patent US20230048960A1 (University of Washington, published 2023)
